Legend:
[1] = target: p9 p9 (Equine infectious anemia virus) (UniProt P69730); experiment: SPR; conditions: cited from earlier work
[2] = target: T1, GAL4 DBD-p9 EIAVUK, P69732; experiment: yeast two-hybrid, β-galactosidase assay; conditions: chain shown with the change;; parent: est. 1.2; read off a plot
T1 chain: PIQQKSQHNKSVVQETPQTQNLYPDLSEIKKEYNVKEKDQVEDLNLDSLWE

[3] = target: T2, Gal4 DBD-HIV-1 p6 (wild type), P12493; experiment: yeast two-hybrid, β-galactosidase assay; conditions: chain shown with the change;; parent: est. 0.85; read off a plot
T2 chain: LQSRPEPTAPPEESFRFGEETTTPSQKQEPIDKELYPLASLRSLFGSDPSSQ

Sequence of ALIX deleted from PRR (Q8WUM4 2-868, stated change not applied): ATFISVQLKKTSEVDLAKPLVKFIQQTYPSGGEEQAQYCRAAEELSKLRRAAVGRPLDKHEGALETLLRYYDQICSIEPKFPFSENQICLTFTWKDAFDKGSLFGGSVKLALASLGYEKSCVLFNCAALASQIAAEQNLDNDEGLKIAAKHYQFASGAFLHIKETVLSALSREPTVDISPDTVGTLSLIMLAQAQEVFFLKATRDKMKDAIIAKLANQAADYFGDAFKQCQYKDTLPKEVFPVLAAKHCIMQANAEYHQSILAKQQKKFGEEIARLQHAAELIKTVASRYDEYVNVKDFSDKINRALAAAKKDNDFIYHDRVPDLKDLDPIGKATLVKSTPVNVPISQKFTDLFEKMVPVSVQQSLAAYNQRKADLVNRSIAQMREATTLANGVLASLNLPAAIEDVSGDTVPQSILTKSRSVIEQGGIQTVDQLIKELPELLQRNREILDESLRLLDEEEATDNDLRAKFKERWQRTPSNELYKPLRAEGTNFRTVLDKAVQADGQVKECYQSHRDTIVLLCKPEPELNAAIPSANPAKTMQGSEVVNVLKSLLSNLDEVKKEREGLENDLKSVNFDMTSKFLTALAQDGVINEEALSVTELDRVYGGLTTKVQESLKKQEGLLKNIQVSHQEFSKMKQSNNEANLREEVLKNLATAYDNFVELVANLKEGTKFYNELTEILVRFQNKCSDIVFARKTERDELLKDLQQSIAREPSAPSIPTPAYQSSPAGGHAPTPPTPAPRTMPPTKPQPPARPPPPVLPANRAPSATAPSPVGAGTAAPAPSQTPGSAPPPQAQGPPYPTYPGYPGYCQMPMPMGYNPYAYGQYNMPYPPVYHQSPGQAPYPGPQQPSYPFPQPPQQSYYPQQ

Molecule	Kd [1]	other: relative β-Gal activity (relative to ALIX wild type = 1) [2]	other: relative β-Gal activity (relative to ALIX wild type = 1) [3]
ALIX deleted from PRR (from UniProt Q8WUM4)	1200 nM	–	–
Gal4 AD-ALIXΔ541–582, Q8WUM4-1 V509A (protein) MATFISVQLKKTSEVDLAKPLVKFIQQTYPSGGEEQAQYCRAAEELSKLRRAAVGRPLDKHEGALETLLRYYDQICSIEPKFPFSENQICLTFTWKDAFDKGSLFGGSVKLALASLGYEKSCVLFNCAALASQIAAEQNLDNDEGLKIAAKHYQFASGAFLHIKETVLSALSREPTVDISPDTVGTLSLIMLAQAQEVFFLKATRDKMKDAIIAKLANQAADYFGDAFKQCQYKDTLPKEVFPVLAAKHCIMQANAEYHQSILAKQQKKFGEEIARLQHAAELIKTVASRYDEYVNVKDFSDKINRALAAAKKDNDFIYHDRVPDLKDLDPIGKATLVKSTPVNVPISQKFTDLFEKMVPVSVQQSLAAYNQRKADLVNRSIAQMREATTLANGVLASLNLPAAIEDVSGDTVPQSILTKSRSVIEQGGIQTVDQLIKELPELLQRNREILDESLRLLDEEEATDNDLRAKFKERWQRTPSNELYKPLRAEGTNFRTVLDKAVQADGQAKECYQSHRDTIVLLCKPEPELNAAIPSANPAKTMQGSEVVNVLKSLLSNLDEVKKEREGLENDLKSVNFDMTSKFLTALAQDGVINEEALSVTELDRVYGGLTTKVQESLKKQEGLLKNIQVSHQEFSKMKQSNNEANLREEVLKNLATAYDNFVELVANLKEGTKFYNELTEILVRFQNKCSDIVFARKTERDELLKDLQQSIAREPSAPSIPTPAYQSSPAGGHAPTPPTPAPRTMPPTKPQPPARPPPPVLPANRAPSATAPSPVGAGTAAPAPSQTPGSAPPPQAQGPPYPTYPGYPGYCQMPMPMGYNPYAYGQYNMPYPPVYHQSPGQAPYPGPQQPSYPFPQPPQQSYYPQQ	–	1.1	0.05
